In the supplement of paper PMC9112550, “Optimization of the antimicrobial peptide Bac7 by deep mutational scanning” (BMC Biology, 2022):

Test system: Escherichia coli TOP10
Experiment: shrunken log2 fold change of peptide-encoding DNA abundance (4.5 h post-induction vs induction); higher = less antimicrobial activity (less host growth inhibition)
Conditions: time post-induction: 4.5 h; library: site-saturation at positions 5, 18, 19, 20
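Further: peptides expressed intracellularly from a pBAD plasmid library in pooled LB shake-flask culture, induced with 0.3% L-arabinose, DNA abundance read by NGS, three biological replicates, DESeq2 with apeglm shrinkage.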

Sequence | shrunken log2 fold change
RRIRSRPPRLPRPRPRPFIKPRP | -0.275
RRIRLRPPRLPRPRPRPSNTPRP | -0.624
RRIRPRPPRLPRPRPRPFPDPRP | 0.00657
RRIRCRPPRLPRPRPRPQIGPRP | -0.00649
RRIRWRPPRLPRPRPRPWFRPRP | -0.251
RRIRFRPPRLPRPRPRPKNFPRP | 0.0482
RRIRIRPPRLPRPRPRPEGHPRP | -0.00139
RRIRPRPPRLPRPRPRPQFQPRP | -0.192
RRIRARPPRLPRPRPRPLGFPRP | 0.644
RRIRVRPPRLPRPRPRPMPCPRP | 0.118
RRIRGRPPRLPRPRPRPVNQPRP | 0.35
RRIRKRPPRLPRPRPRPMIKPRP | -0.0199
RRIRARPPRLPRPRPRPCARPRP | 0.786
RRIRTRPPRLPRPRPRPVDYPRP | -0.172
RRIRRRPPRLPRPRPRPFCCPRP | 0.343
RRIRFRPPRLPRPRPRPGHVPRP | -0.447
RRIRLRPPRLPRPRPRPRRLPRP | 0.18
RRIRGRPPRLPRPRPRPVALPRP | 0.639
RRIRRRPPRLPRPRPRPTTIPRP | -0.12
RRIRLRPPRLPRPRPRPNFMPRP | -0.117

Sequence | shrunken log2 fold change
RRIRLRPPRLPRPRPRPSDLPRP | -0.163
RRIRPRPPRLPRPRPRPEAIPRP | 0.102
RRIRFRPPRLPRPRPRPGYHPRP | -1.45
RRIRYRPPRLPRPRPRPYNWPRP | -0.593
RRIRWRPPRLPRPRPRPHAAPRP | 0.45
RRIRTRPPRLPRPRPRPACCPRP | 0.263
RRIRSRPPRLPRPRPRPDKDPRP | -0.102
RRIRYRPPRLPRPRPRPRQHPRP | -0.571
RRIRTRPPRLPRPRPRPQCMPRP | -0.133
RRIRERPPRLPRPRPRPSFFPRP | 0.221
RRIRFRPPRLPRPRPRPEWTPRP | 0.155
RRIRKRPPRLPRPRPRPWSYPRP | -0.528
RRIRGRPPRLPRPRPRPMFGPRP | 0.39
RRIRCRPPRLPRPRPRPMQFPRP | -0.113
RRIRMRPPRLPRPRPRPRAGPRP | 1.08
RRIRPRPPRLPRPRPRPEVWPRP | 0.5
RRIRYRPPRLPRPRPRPFEFPRP | -0.153
RRIRRRPPRLPRPRPRPMTVPRP | -0.238
RRIRWRPPRLPRPRPRPYINPRP | -0.536
RRIRRRPPRLPRPRPRPPKNPRP | 0.671

Sequence | shrunken log2 fold change
RRIRRRPPRLPRPRPRPASAPRP | 0.227
RRIRRRPPRLPRPRPRPKQSPRP | 0.143
RRIRERPPRLPRPRPRPLCEPRP | 0.0297
RRIRQRPPRLPRPRPRPCHEPRP | -0.0663
RRIRIRPPRLPRPRPRPDPLPRP | -0.326
RRIRSRPPRLPRPRPRPNEMPRP | -0.252
RRIRERPPRLPRPRPRPSPWPRP | -0.445
RRIRKRPPRLPRPRPRPFTLPRP | 0.0269
RRIRGRPPRLPRPRPRPGIVPRP | 0.957
RRIRQRPPRLPRPRPRPDIAPRP | 0.111
RRIRDRPPRLPRPRPRPCSAPRP | 0.45
RRIRMRPPRLPRPRPRPQATPRP | -0.00147
RRIRDRPPRLPRPRPRPVHQPRP | -0.0516
RRIRMRPPRLPRPRPRPMQDPRP | 1.14
RRIRGRPPRLPRPRPRPQDRPRP | 0.297
RRIRVRPPRLPRPRPRPKTLPRP | -0.0985
RRIRARPPRLPRPRPRPGYFPRP | 0.212
RRIRWRPPRLPRPRPRPALPPRP | 0.374
RRIRSRPPRLPRPRPRPQMKPRP | -0.32
RRIRQRPPRLPRPRPRPLIYPRP | -0.457
